From article PMC6649833

Assays:
[1] = biological target: T1, N15 Cro-His6 (bacteriophage N15, UniProt Q37964 1-71); assay: EMSA
T1 sequence: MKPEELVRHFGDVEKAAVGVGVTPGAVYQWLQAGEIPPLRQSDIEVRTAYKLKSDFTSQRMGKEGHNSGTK

[2] = biological target: T2, N15 Cro (bacteriophage N15, UniProt Q37964 1-71); assay: EMSA
T2 sequence: T1 sequence

[3] = biological target: T2, N15 Cro; assay: X-ray crystallography

B1: N15 OR3 28 bp (dsDNA)
DNA 1: GCAAAATTATAGCCAGCTATAAAGAGCG
DNA 2: CGCTCTTTATAGCTGGCTATAATTTTGC
- Kd [1]: 91 ± 11 nM
- Kd [2]: 90 ± 7 nM

B2: N15 symmetric consensus OR 16 bp (dsDNA)
DNA 1: TTTATAGCTAGCTATAA
DNA 2: TTTATAGCTAGCTATAA
- binding result [3]: binds
